# Legend:
# [1] = molecular target: Cullin5/Rbx1 complex (mouse | not stated) (UniProt Q9D5V5); experiment: SEC
# [2] = molecular target: GST-Cul5(NTD)/HIS6-Rbx2/Cul(CTD) complex (mouse) (UniProt Q9D5V5); experiment: pull-down + SEC
# Chain of GST-Cul5(NTD)/HIS6-Rbx2/Cul(CTD) complex (mouse) (Q9D5V5 1-384, chain 1 of 3): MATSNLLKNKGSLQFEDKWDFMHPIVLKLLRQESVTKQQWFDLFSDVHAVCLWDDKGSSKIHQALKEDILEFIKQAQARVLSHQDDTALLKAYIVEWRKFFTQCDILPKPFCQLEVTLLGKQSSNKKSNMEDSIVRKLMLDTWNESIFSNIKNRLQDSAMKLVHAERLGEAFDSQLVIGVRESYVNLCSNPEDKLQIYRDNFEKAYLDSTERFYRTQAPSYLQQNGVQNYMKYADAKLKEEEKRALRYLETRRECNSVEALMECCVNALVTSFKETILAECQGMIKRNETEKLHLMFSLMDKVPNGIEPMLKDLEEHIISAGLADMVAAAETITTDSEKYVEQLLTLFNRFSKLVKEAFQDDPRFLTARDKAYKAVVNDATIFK
# Chain of GST-Cul5(NTD)/HIS6-Rbx2/Cul(CTD) complex (mouse) (Q9D5V5 385-780, chain 2 of 3): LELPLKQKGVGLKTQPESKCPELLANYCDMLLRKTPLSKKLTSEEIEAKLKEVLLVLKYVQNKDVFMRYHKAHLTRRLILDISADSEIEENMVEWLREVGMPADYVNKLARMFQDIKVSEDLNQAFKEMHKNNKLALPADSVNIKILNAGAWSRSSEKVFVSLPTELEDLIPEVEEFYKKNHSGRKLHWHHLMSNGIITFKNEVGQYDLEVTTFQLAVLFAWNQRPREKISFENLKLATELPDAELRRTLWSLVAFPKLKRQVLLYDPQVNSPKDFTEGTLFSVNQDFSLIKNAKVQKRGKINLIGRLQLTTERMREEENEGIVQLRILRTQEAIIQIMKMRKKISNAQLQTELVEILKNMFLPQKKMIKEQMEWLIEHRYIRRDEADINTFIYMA
# Chain of GST-Cul5(NTD)/HIS6-Rbx2/Cul(CTD) complex (mouse) (Q9WTZ1 whole entry, chain 3 of 3, further chain): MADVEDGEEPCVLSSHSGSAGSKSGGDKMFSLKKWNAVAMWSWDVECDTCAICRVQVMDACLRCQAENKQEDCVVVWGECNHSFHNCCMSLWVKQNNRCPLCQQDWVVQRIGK
# Chain of Murine SOCS3/elonginsBC complex (O35718 22-225): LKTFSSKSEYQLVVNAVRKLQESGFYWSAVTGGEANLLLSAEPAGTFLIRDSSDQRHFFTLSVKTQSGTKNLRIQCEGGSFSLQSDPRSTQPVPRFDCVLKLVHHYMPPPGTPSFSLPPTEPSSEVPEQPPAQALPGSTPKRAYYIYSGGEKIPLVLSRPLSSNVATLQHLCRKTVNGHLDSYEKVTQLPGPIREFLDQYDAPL
# Chain of Murine SOCS3/elonginsBC complex (P62869 whole entry): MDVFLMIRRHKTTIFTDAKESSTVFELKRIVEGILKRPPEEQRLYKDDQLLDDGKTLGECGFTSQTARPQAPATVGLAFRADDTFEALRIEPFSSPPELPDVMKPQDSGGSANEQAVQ
# Chain of Murine SOCS3/elonginsBC complex (P83940 whole entry): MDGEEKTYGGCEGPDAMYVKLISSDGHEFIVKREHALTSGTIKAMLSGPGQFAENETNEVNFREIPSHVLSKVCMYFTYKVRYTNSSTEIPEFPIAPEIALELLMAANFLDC
# Chain of Cullin5/Rbx1 complex (mouse | not stated) (Q9D5V5 1-384, chain 1 of 3): as the sequence (Q9D5V5 1-384, chain 1 of 3) above
# Chain of Cullin5/Rbx1 complex (mouse | not stated) (Q9D5V5 385-780, chain 2 of 3): as the sequence (Q9D5V5 385-780, chain 2 of 3) above
# Chain of Cullin5/Rbx1 complex (mouse | not stated) (P62878 whole entry, chain 3 of 3, further chain): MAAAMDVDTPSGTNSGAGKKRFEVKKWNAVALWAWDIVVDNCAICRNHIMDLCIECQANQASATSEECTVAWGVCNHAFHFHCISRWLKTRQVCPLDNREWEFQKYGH
substance,measurement,setting,value
Murine SOCS3/elonginsBC complex (from UniProt O35718 22-225; P62869 1-118; P83940 1-112),stoichiometry N,[1],1
same,stoichiometry N,[2],1

# From article PMC4085236
